Data from article PMC8221060, “Interplay between chromophore binding and domain assembly by the B12-dependent photoreceptor protein, CarH†” (Chemical Science, 2021).

B1: CarH from Thermus thermophilus (TtCarH), wild type (natural protein)
chain: MTSSGVYTIAEVEAMTGLSAEVLRQWERRYGFPKPRRTPGGHRLYSAEDVEALKTIKRWLEEGATPKAAIRRYLAQEVRPEDLGTGLLEALLRGDLAGAEALFRRGLRFWGPEGVLEHLLLPVLREVGEAWHRGEIGVAEEHLASTFLRARLQELLDLAGFPPGPPVLVTTPPGERHEIGAMLAAYHLRRKGVPALYLGPDTPLPDLRALARRLGAGTVVLSAVLSEPLRALPDGALKDLAPRVFLGGQGAGPEEARRLGAEYMEDLKGLAEALWLPRGPEKEAI
notes: CarH, B12-dependent photoreceptor and transcriptional regulator of Thermus thermophilus; Written as the monomer, which associates with itself to dimers and tetramers; The cofactor (AdoCbl or MeCbl, small molecules) was added or left out as told in each assay; also called WT TtCarH; WT

Assays:
[1] = target: TtCarH G192Q variant (Thermus thermophilus) (UniProt Q53W62); assay: native MS; native ion mobility mass spectrometry; G192Q without AdoCbl; monomer to dimer
[2] = target: TtCarH G192Q variant (Thermus thermophilus) (UniProt Q53W62); assay: native MS; native ion mobility mass spectrometry; G192Q with increasing molar ratios of AdoCbl; monomer to dimer
[3] = target: TtCarH G192Q variant (Thermus thermophilus) (UniProt Q53W62); assay: stopped-flow fluorescence; quenching of protein emission (excitation at 280 nm) after rapid mixing of apo-protein with AdoCbl at saturating concentrations (≥10×); kapp of the second phase against protein concentration, fit linearly; monomer to dimer step taken as rate-limiting
[4] = target: the molecule itself; assay: native MS; native ion mobility mass spectrometry; WT TtCarH, 10 μM apo-protein, no B12 added; monomer to dimer
[5] = target: the molecule itself; assay: native MS; native ion mobility mass spectrometry; WT TtCarH, 10 μM apo-protein, with AdoCbl from sub-stoichiometric quantities to a two-fold excess
[6] = target: the molecule itself; assay: stopped-flow fluorescence; quenching of protein emission (excitation at 280 nm) after rapid mixing of apo-protein with AdoCbl at saturating concentrations (≥10×); kapp of the second phase against protein concentration, fit linearly; monomer to dimer step taken as rate-limiting

Molecule | stoichiometry N [1] | stoichiometry N [2] | kon [3] [M⁻¹ s⁻¹] | stoichiometry N [4] | stoichiometry N [5] | kon [6] [M⁻¹ s⁻¹]
TtCarH G192Q variant (from UniProt Q53W62 1-285) (natural protein) | 2 | 2 | 45100 |  |  | 
B1 |  |  |  | 2 | 4 | 50400 ± 2300
